In article PMC11554226 (2024):
Positions count from the first letter of the chain named. In names and notes the source's numbering stands.

B1: Tnb04-1 R50Q (nanobody-Fc) (Fc fusion)
chain: EVQLVESGGGLVQPGGSLRLSCAASGSISTLNVMGWYRQAPGKQRELVAQITLDGRPEYADSVKGRFTITKDGAQSTLYLQMNNLKPEDTAVYFCKLENGGFFYYWGQGTQVTVSS
B2: Tnb04-1 R56S (nanobody-Fc) (Fc fusion)
chain: B1 chain with Q50R, R56S

Molecular target: receptor-binding domain (RBD) of SARS-CoV-2 prototype strain (SARS-CoV-2 prototype strain, UniProt P0DTC2)
Experiment: SPR

Binder	Kd [nM]
B1	0.471
B2	0.535
